Laboratory results: patent US20140329752A1 (published 2014)
Ends that are not written are not given here.

Assays:
[1] = molecular target: T1, amylin receptor AMY1, a CT (calcitonin) receptor/RAMP1 (receptor-activity modifying protein) complex (UniProt P30988 25-474; O60894 27-148, limits assumed); experiment: cell-based or functional assay
[2] = molecular target: T1, amylin receptor AMY1, a CT (calcitonin) …; experiment: cell-based or functional assay; remark: listed apart in the source

T1 sequence (P30988 25-474 limits assumed, chain 1 of 2): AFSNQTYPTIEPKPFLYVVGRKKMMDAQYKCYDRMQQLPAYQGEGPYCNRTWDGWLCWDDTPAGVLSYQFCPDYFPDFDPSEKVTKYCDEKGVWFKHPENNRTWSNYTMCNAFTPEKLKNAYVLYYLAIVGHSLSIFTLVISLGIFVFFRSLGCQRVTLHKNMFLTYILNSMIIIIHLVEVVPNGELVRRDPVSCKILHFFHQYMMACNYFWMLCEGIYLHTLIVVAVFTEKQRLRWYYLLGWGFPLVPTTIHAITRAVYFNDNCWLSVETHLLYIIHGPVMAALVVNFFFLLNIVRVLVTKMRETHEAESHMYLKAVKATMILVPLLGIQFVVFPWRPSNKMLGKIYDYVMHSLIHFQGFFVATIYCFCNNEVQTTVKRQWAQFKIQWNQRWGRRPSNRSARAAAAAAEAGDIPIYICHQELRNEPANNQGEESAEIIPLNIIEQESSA
T1 sequence (O60894 27-148 limits assumed, chain 2 of 2): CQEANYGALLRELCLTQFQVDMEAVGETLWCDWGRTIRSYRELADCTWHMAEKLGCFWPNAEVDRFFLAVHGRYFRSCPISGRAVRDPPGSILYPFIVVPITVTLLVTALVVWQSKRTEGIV

Binder | IC50 nM (calcium flux, inhibition of stimulation by 32 nM α-CGRP) [1] [nM] | IC50 nM (calcium flux, assay positive control) [2] [nM]
H-ACNLSACVLGRLSQELHRLQTYPRTNVGSKAF-NH2 (not fully specified (bridges); printed as NH2-Ala-Cys-Asn-Leu-Ser-Ala-Cys-Val-Leu-Gly-Arg-Leu-Ser-Gln-Glu-Leu-His-Arg-Leu-Gln-Thr-Tyr-Pro-Arg-Thr-Asn-Val-Gly-Ser-Lys-Ala-Phe-NH2; cysteine pairing not given here) [modified calcitonin gene-related peptide antagonist of SEQ ID NO: 7] | 8 | 
H-ACNLSACVLGRLSQELHRLQTYPTNTGSGTP-NH2 (not fully specified (bridges); printed as NH2-Ala-Cys-Asn-Leu-Ser-Ala-Cys-Val-Leu-Gly-Arg-Leu-Ser-Gln-Glu-Leu-His-Arg-Leu-Gln-Thr-Tyr-Pro-Thr-Asn-Thr-Gly-Ser-Gly-Thr-Pro-NH2; cysteine pairing not given here) [modified calcitonin gene-related peptide antagonist of SEQ ID NO: 13] | 4 | 
H-ACDTASCVLGRLSQELHRLQTYPRTNVGSKAF-NH2 (not fully specified (bridges); printed as NH2-Ala-Cys-Asp-Thr-Ala-Ser-Cys-Val-Leu-Gly-Arg-Leu-Ser-Gln-Glu-Leu-His-Arg-Leu-Gln-Thr-Tyr-Pro-Arg-Thr-Asn-Val-Gly-Ser-Lys-Ala-Phe-NH2; cysteine pairing not given here) [modified calcitonin gene-related peptide antagonist of SEQ ID NO: 2] | 5 | 
H-ACNTAACVLGRLSQELHRLQTYPRTNVGSKAF-NH2 (not fully specified (bridges); printed as NH2-Ala-Cys-Asn-Thr-Ala-Ala-Cys-Val-Leu-Gly-Arg-Leu-Ser-Gln-Glu-Leu-His-Arg-Leu-Gln-Thr-Tyr-Pro-Arg-Thr-Asn-Val-Gly-Ser-Lys-Ala-Phe-NH2; cysteine pairing not given here) [modified calcitonin gene-related peptide antagonist of SEQ ID NO: 4] | 12 | 
H-ACNLSVCVLGRLSQELHRLQTYPRTNVGSKAF-NH2 (not fully specified (bridges); printed as NH2-Ala-Cys-Asn-Leu-Ser-Val-Cys-Val-Leu-Gly-Arg-Leu-Ser-Gln-Glu-Leu-His-Arg-Leu-Gln-Thr-Tyr-Pro-Arg-Thr-Asn-Val-Gly-Ser-Lys-Ala-Phe-NH2; cysteine pairing not given here) [modified calcitonin gene-related peptide antagonist of SEQ ID NO: 11] | 9 | 
ACDTAACVTHRLAGLLSRSGGVVKNNFVPTNVGSKAF-NH2 (not fully specified (bridges); printed as Ala-Cys-Asp-Thr-Ala-Ala-Cys-Val-Thr-His-Arg-Leu-Ala-Gly-Leu-Leu-Ser-Arg-Ser-Gly-Gly-Val-Val-Lys-Asn-Asn-Phe-Val-Pro-Thr-Asn-Val-Gly-Ser-Lys-Ala-Phe-NH2; cysteine pairing not given here) [modified calcitonin gene-related peptide antagonist of SEQ ID NO: 15] | 1240 | 
H-ACDTALCVLGRLSQELHRLQTYPRTNVGSKAF-NH2 (not fully specified (bridges); printed as NH2-Ala-Cys-Asp-Thr-Ala-Leu-Cys-Val-Leu-Gly-Arg-Leu-Ser-Gln-Glu-Leu-His-Arg-Leu-Gln-Thr-Tyr-Pro-Arg-Thr-Asn-Val-Gly-Ser-Lys-Ala-Phe-NH2; cysteine pairing not given here) [modified calcitonin gene-related peptide antagonist of SEQ ID NO: 9] | 9 | 
VLGKLSQELHKLQTYPRTNTGSNTY (not fully specified) [AC187] |  | 8150
H-ACVLGACVLGRLSQELHRLQTYPRTNVGSKAF-NH2 (not fully specified (bridges); printed as NH2-Ala-Cys-Val-Leu-Gly-Ala-Cys-Val-Leu-Gly-Arg-Leu-Ser-Gln-Glu-Leu-His-Arg-Leu-Gln-Thr-Tyr-Pro-Arg-Thr-Asn-Val-Gly-Ser-Lys-Ala-Phe-NH2; cysteine pairing not given here) [modified calcitonin gene-related peptide antagonist of SEQ ID NO: 5] | 75 | 
H-ACDTAICVLGRLSQELHRLQTYPRTNVGSKAF-NH2 (not fully specified (bridges); printed as NH2-Ala-Cys-Asp-Thr-Ala-Ile-Cys-Val-Leu-Gly-Arg-Leu-Ser-Gln-Glu-Leu-His-Arg-Leu-Gln-Thr-Tyr-Pro-Arg-Thr-Asn-Val-Gly-Ser-Lys-Ala-Phe-NH2; cysteine pairing not given here) [modified calcitonin gene-related peptide antagonist of SEQ ID NO: 10] | 9 | 
H-ACDTAVCVLGRLSQELHRLQTYPRTNVGSKAF-NH2 (not fully specified (bridges); printed as NH2-Ala-Cys-Asp-Thr-Ala-Val-Cys-Val-Leu-Gly-Arg-Leu-Ser-Gln-Glu-Leu-His-Arg-Leu-Gln-Thr-Tyr-Pro-Arg-Thr-Asn-Val-Gly-Ser-Lys-Ala-Phe-NH2; cysteine pairing not given here) [modified calcitonin gene-related peptide antagonist of SEQ ID NO: 3] | 4 | 

Next, values leading:

IC50 nM (calcium flux, inhibition of stimulation by 32 nM α-CGRP) [1] [nM] | IC50 nM (calcium flux, assay positive control) [2] [nM] | Binder
17 |  | H-ACDTAACVLGRLSQELHRLQTYPRTNVGSKAF-NH2 (not fully specified (bridges); printed as NH2-Ala-Cys-Asp-Thr-Ala-Ala-Cys-Val-Leu-Gly-Arg-Leu-Ser-Gln-Glu-Leu-His-Arg-Leu-Gln-Thr-Tyr-Pro-Arg-Thr-Asn-Val-Gly-Ser-Lys-Ala-Phe-NH2; cysteine pairing not given here) [modified calcitonin gene-related peptide antagonist of SEQ ID NO: 1]
33 |  | H-ACRFGACVLGRLSQELHRLQTYPRTNVGSKAF-NH2 (not fully specified (bridges); printed as NH2-Ala-Cys-Arg-Phe-Gly-Ala-Cys-Val-Leu-Gly-Arg-Leu-Ser-Gln-Glu-Leu-His-Arg-Leu-Gln-Thr-Tyr-Pro-Arg-Thr-Asn-Val-Gly-Ser-Lys-Ala-Phe-NH2; cysteine pairing not given here) [modified calcitonin gene-related peptide antagonist of SEQ ID NO: 6]
9 |  | H-CSNTAVCVLGRLSQELHRLQTYPRTNVGSKAF-NH2 (not fully specified (bridges); printed as NH2-Cys-Ser-Asn-Thr-Ala-Val-Cys-Val-Leu-Gly-Arg-Leu-Ser-Gln-Glu-Leu-His-Arg-Leu-Gln-Thr-Tyr-Pro-Arg-Thr-Asn-Val-Gly-Ser-Lys-Ala-Phe-NH2; cysteine pairing not given here) [modified calcitonin gene-related peptide antagonist of SEQ ID NO: 12]
1020 |  | ACVLGACVLGRLSQELHRLQTYPVDPSSPHSY-NH2 (not fully specified (bridges); printed as Ala-Cys-Val-Leu-Gly-Ala-Cys-Val-Leu-Gly-Arg-Leu-Ser-Gln-Glu-Leu-His-Arg-Leu-Gln-Thr-Tyr-Pro-Val-Asp-Pro-Ser-Ser-Pro-His-Ser-Tyr-NH2; cysteine pairing not given here) [modified calcitonin gene-related peptide antagonist of SEQ ID NO: 14]
16 |  | H-CSNTAACVLGRLSQELHRLQTYPRTNVGSKAF-NH2 (not fully specified (bridges); printed as NH2-Cys-Ser-Asn-Thr-Ala-Ala-Cys-Val-Leu-Gly-Arg-Leu-Ser-Gln-Glu-Leu-His-Arg-Leu-Gln-Thr-Tyr-Pro-Arg-Thr-Asn-Val-Gly-Ser-Lys-Ala-Phe-NH2; cysteine pairing not given here) [modified calcitonin gene-related peptide antagonist of SEQ ID NO: 8]
